Residue numbers refer to the chain shown, from its start.
T1: human IL4Rα/Fc (R and D Systems 604-4R) (human, UniProt P24394 26-231, limits assumed, biotin labelled in the assay of Example 5)
T1 construct: bought protein; also called IL-4Rα/Fc (R&D systems Cat. No. 604-4R-050); not shown: Fc part of the bought fusion
T1 sequence (looked up): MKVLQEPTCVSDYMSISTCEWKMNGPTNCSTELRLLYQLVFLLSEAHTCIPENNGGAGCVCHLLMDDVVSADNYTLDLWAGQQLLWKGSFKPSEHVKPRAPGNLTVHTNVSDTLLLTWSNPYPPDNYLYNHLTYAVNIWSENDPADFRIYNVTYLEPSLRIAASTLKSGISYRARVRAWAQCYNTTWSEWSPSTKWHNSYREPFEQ

B1: Antibody 15 scFv (scFv, V domains shown)
VH: QVQLVQSGAEVKKPGASVKVSCKASGYAFTSYYMHWARQAPGQGLEWMGIINPSGGSTSYAQKFQGRVTMTRDTSTSTVYMELSSLRSEDTAVYYCARGKWWLYNWGKGTLVTVSS
VL: QSVLTQPPSVSAAPGQKVTISCSGGSSNIGNSYVSWYQQLPGTAPKLLIYDNNKRPSGIPDRFSGSKSGTSATLAITGLQTGDEADYYCGTWDTSTHRHPLFGTGTKLTVL
notes: tested as purified scFv
B2: Antibody 16 scFv (scFv, V domains shown)
VH: B1 VH
VL: B1 VL with H97T, R98Y, L101I
notes: tested as purified scFv
B3: Antibody 18 scFv (scFv, V domains shown)
VH: B1 VH with L103W, Y104Q, N105H
VL: B1 VL with H97T, R98P, H99M, L101V
notes: tested as purified scFv
B4: Antibody 19 scFv (scFv, V domains shown)
VH: B1 VH with L103W, Y104Q, N105H
VL: B1 VL with H97T, R98Y, L101I
notes: tested as purified scFv
B5: Antibody 21 scFv (scFv, V domains shown)
VH: B1 VH with T58A, W101Y, L103M, N105D
VL: B1 VL with D86V, Y88F, H97V, R98W, H99E, P100W, L101P
notes: tested as purified scFv
B6: Antibody 22 scFv (scFv, V domains shown)
VH: B1 VH with W101Y, L103M, N105D
VL: B1 VL with S2P, Y88F, H97V, R98W, H99E, P100W, L101P
notes: tested as purified scFv
B7: Antibody 23 scFv (scFv, V domains shown)
VH: B1 VH with K12R, W101Y, L103M, N105D
VL: B1 VL with S32N, S57P, H97V, R98W, H99E, P100W, L101P
notes: tested as purified scFv
B8: Antibody 24 scFv (scFv, V domains shown)
VH: B1 VH with S54R, W101Y, L103M, N105D
VL: B1 VL with Y88F, H97V, R98W, H99E, P100W, L101P
notes: tested as purified scFv
B9: Antibody 24PGL scFv (scFv, V domains shown)
VH: B1 VH with A37V, S54R, W101Y, L103M, N105D
VL: B1 VL with A75G, Y88F, H97V, R98W, H99E, P100W, L101P
notes: tested as purified scFv
B10: Antibody 25 scFv (scFv, V domains shown)
VH: B1 VH with S54R, T58A, T69S, W101Y, L103M, N105D
VL: B1 VL with S71T, D93V, H97V, R98W, H99E, P100W, L101P
notes: tested as purified scFv
B11: Antibody 26 scFv (scFv, V domains shown)
VH: B1 VH with W101Y, L103M, N105D
VL: B1 VL with Y88F, H97V, R98W, H99E, P100W, L101P
notes: tested as purified scFv
B12: Antibody 27 scFv (scFv, V domains shown)
VH: B1 VH with K12R, S88P, W101Y, L103M, N105D, L111Q
VL: B1 VL with S9L, Q39R, H97V, R98W, H99E, P100W, L101P
notes: tested as purified scFv
B13: Antibody 28 scFv (scFv, V domains shown)
VH: B1 VH with W101Y, L103M, N105D, K108N
VL: LPVLTQPPSVSAAPGQKVTISCSGGSSSIGNSYVSWYQQLPGAAPKLLIYDNNKRPSGIPDRFSGFRSGTSATLAITGLQTGDEADYYCGTWDTSPVWEWPFGTGTKLTVL
notes: tested as purified scFv
B14: Antibody 30 scFv (scFv, V domains shown)
VH: B1 VH with W101Y, L103M, N105D
VL: B13 VL with L1Q, P2S, S28N, Q39R, F66S, R67K, P96T
notes: tested as purified scFv
B15: Antibody 31 scFv (scFv, V domains shown)
VH: B1 VH with W101Y, L103M, N105D
VL: B13 VL with L1Q, P2S, A43T, F66S, R67K, D93A
notes: tested as purified scFv
B16: Antibody 33 scFv (scFv, V domains shown)
VH: B1 VH with V11E, W101Y, L103M, N105D
VL: B1 VL with V3A, Y88F, H97V, R98W, H99E, P100W, L101P
notes: tested as purified scFv
B17: Antibody 35 scFv (scFv, V domains shown)
VH: B1 VH with W101Y, L103M, N105D
VL: B13 VL with L1Q, P2S, S28N, A43T, F66S, R67K
notes: tested as purified scFv
B18: Antibody 37 scFv (scFv, V domains shown)
VH: B1 VH with S54R, T69A, S88P, W101Y, L103M, N105D
VL: B13 VL with L1Q, P2S, S26G, A43T, I59V, F66S, R67K
notes: tested as purified scFv
B19: Antibody 37GL scFv (scFv, V domains shown)
VH: B1 VH with A37V, S54R, W101Y, L103M, N105D
VL: B13 VL with L1Q, P2S, S26G, A43T, F66S, R67K, A75G
notes: tested as purified scFv; also called NCIMB 41600
B20: Antibody 38 scFv (scFv, V domains shown)
VH: B1 VH with T58A, W101Y, L103M, N105D
VL: B1 VL with Y88F, H97V, R98W, H99E, P100W, L101P
notes: tested as purified scFv
B21: Antibody 40 scFv (scFv, V domains shown)
VH: B1 VH with W101Y, L103M, N105D
VL: B1 VL with T94S, H97V, R98W, H99E, P100W, L101P
notes: tested as purified scFv

biological target: T2, cynomolgus IL4Rα/Fc HIS6 (HEK expressed) (cynomolgus monkey); test: HTRF receptor-ligand assay, purified scFv against biotinylated cynomolgus IL4
T2 construct: also called Cyno IL4R; cynomolgus IL-4Rα HIS Fc (in house HEK-EBNA derived); not shown: HIS6 tag
T2 sequence (chain, as listed by the source): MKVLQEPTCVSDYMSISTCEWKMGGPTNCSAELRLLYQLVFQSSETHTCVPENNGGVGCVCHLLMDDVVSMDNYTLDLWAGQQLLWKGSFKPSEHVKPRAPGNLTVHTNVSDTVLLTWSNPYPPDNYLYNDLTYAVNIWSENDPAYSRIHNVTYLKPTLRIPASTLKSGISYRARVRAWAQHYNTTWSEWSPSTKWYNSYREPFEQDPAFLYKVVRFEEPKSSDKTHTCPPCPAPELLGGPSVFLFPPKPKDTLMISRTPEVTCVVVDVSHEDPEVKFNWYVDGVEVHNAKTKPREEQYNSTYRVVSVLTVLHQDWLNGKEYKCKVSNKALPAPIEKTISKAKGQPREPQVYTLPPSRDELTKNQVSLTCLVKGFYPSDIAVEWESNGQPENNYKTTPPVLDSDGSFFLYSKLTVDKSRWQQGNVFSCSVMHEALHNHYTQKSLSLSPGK

| Binder | Ki [nM] |
| --- | --- |
| B1 | 32.3 |
| B2 | 8.7 |
| B3 | 56.5 |
| B4 | 18.5 |
| B5 | 1 |
| B6 | 2.6 |
| B7 | 4.8 |
| B8 | 0.8 |
| B9 | 0.7 |
| B10 | 1.3 |
| B11 | 1.2 |
| B12 | 2.8 |
| B13 | 1.8 |
| B14 | 3.6 |
| B15 | 2.2 |
| B16 | 1.4 |
| B17 | 2.6 |
| B18 | 0.8 |
| B19 | 0.7 |
| B20 | 2.7 |
| B21 | 6.5 |

biological target: T1, human IL4Rα/Fc (R and D Systems 604-4R); test: HTRF receptor-ligand assay, purified scFv against biotinylated human IL4

| Binder | Ki [nM] |
| --- | --- |
| B1 | 1 |
| B2 | 0.4 |
| B3 | 0.7 |
| B4 | 0.8 |
| B5 | 0.031 |
| B6 | 0.3 |
| B7 | 0.2 |
| B8 | 0.049 |
| B9 | 0.065 |
| B10 | 0.039 |
| B11 | 0.1 |
| B12 | 0.063 |
| B13 | 0.094 |
| B14 | 0.069 |
| B15 | 0.044 |
| B16 | 0.092 |
| B17 | 0.071 |
| B18 | 0.04 |
| B19 | 0.061 |
| B20 | 0.066 |
| B21 | 0.031 |
